Source: patent US20140234351A1 (IMMUNOCELLULAR THERAPEUTICS, published 2014)

B1: IL-13Rα2 345-352 HLA-A2 peptide (peptide)
peptide: WLPFGFILI
notes: Synthetic peptide; also called IL-13Rα2p345; IL-13Rα2 p345
B2: MAGE-A1 278-286 HLA-A2 peptide (peptide)
peptide: KVLEYVIKV
notes: Synthetic peptide; also called MAGEA1p278; MAGE-A1 p278
B3: Mesothelin 531-539 HLA-A2 peptide (peptide)
peptide: VLPLTVAEV
notes: Synthetic peptide; also called mesothelinp531; mesothelin p531
B4: EphA2 883-891 HLA-A2 peptide (peptide)
peptide: TLADFDPRV
notes: Synthetic peptide; also called EphA2p883; EphA2 p883
B5: FOLR1 191-199 HLA-A2 peptide (peptide)
peptide: EIWTHSYKV
notes: Synthetic peptide; also called FOLR1p191; FOLR1 p191

Biological target: T1, HLA-A*0201 molecules on TAP-deficient T2 cells (human)
T1 construct: also called HLA-A2; T2 cells expressing HLA-A2
Assay: T2 cell binding assay, fluorescence index (MFI peptide - MFI untreated)/MFI untreated

| Binder | MFI index |
| --- | --- |
| B1 | > 1.5 |
| B2 | > 1.5 |
| B3 | > 1.5 |
| B4 | > 1.5 |
| B5 | < 1 |
